In publication PMC10193809, “A small protein coded within the mitochondrial canonical gene nd4 regulates mitochondrial bioenergetics” (BMC Biology, 2023):

Biological target: the molecule itself
Assay: cross-linking; 3 µg synthetic MTALTND4 in 20 µl PBS 1x with 0%, 0.5% or 1% paraformaldehyde, 30 °C, 10 min; tricine-SDS-PAGE, Coomassie stain

B1: MTALTND4 (mitochondrial alternative ND4 protein), complete synthetic peptide (peptide)
chain: MRHNYNKLHLPTTNRPKIAHCMLFNQPHSPRSNSHSHPNPLKLHRRSHSHNRPRAYILITILPSKLKLRTHSQSHHNPLSRTSNSTPTNSFLMTSSKPR
notes: M.W. 11,532.06 g/mol as printed in the methods; also called MTALND4; synthetic MTALTND4; source: synthetic peptide (LifeTein; purity verified by HPLC by the supplier)
Question: With B1 as the protein, how does the “stoichiometry N” value read?
Answer: Its value is 2.
